Among the data in a protein production outcome set (Wang et al. 2014) are protein production values, retold here.

This series can be described thus: label from the status in PepcDB records.
Regarding “MSPIEKSSKLENVCYDIRGPVLKEAKRLEEEGNKVLKLNIGNPAPFGFDAPDEILVDVIRNLPTAQGYCDSKGLYSARKAIMQHYQARGMRDVTVEDIYIGNGVSELIVQAMQALLNSGDEMLVPAPDYPLWTAAVSLSSGKAVHYLCDESSDWFPDLDDIRAKITPRTRGIVIINPNNPTGAVYSKELLMEIVEIARQHNLIIFADEIYDKILYDDAEHHSIAPLAPDLLTITFNGLSKTYRVAGFRQGWMVLNGPKKHAKGYIEGLEMLASMRLCANVPAQHAIQTALGGYQSISEFITPGGRLYEQRNRAWELINDIPGVSCVKPRGALYMFPKIDAKRFNIHDDQKMVLDFLLQEKVLLVQGTAFNWPWPDHFRIVTLPRVDDIELSLSKFARFLSGYHQL”, the protein production result is “failed”.

For the sequence “MSPPRDLPTLGRNTIPIPEFEMTRRNSKPGVRLLSVLVALGMAAPALAQAVTEPVTQPAIYPTPVSITLDGATIALGRSVVLVVAPGADKATVALVRSILSSAGVTKMATATRLPATLDRPHIVLGTGDAAVVRDALARSKARQDTHKEGYTLASVALDGGSLITLAGHDDDGLFHAAQTLRQLVERPAIPTLTIHDYPAMPIRGTIEGFYGAPWSMSDRSKHIDFLARTKANTFIYSPKDDPYARDRWRAPYPKATLKALGQLAATAKRNHVDFVYAISPGPTVCFSDPADAKALLRKFDAFRALGVRSFYVALDDIEYTKWNCERDKTAFGESGAQAAGIAQSHLLNLVQADLVARHDATSELIMVPTEYYDAKESPYKEALRKHLDPKIVVQWTGTDVVPPAISIPDARAATKAFGRKTLLWDNYPVNDFETSAGRLLMAPYARREAGLSAELSGIVSNPMNQEVPSRVAVMGLTAFAWNDKDYDAQRTWHAAARDLAGGDARVTAALLIFFDTQHLAPTFGSQPWQEQAPRLKAVLDHVREAIALGDAAARTQAIAELARTADEMAAAPQIIRDSVADKGFAKQSRPWLEAMEVWGGALQKTAAGLDAANRGDTQAPALFAEAAAHAAVAAVVPSIPGATRFDGPVKIADGVLDRFIAQAPRLIAYRVPAVADSAAAK”, the protein production entry is “failed”.

Take “MSPRSIAMCGRCGIRARHSVAPDCCLSVRQATNKCPAVEHHSHGGRRPCTANGGVAFDRFVMTNRFSPRARSTRIVSKVVWRKRSGRDDENKKTRGEHDMSASVQSALSGLVLAAAVAMPALADGLKDEIAPTGKLRVAIAISPAGGAFWSTRTETGYAGVPVDLGKEMAAQLGVGVEYVVHQNSGQITDAASKGTWDVTWLPKDPERESKMMFGPIYEVADATYIVKAGSNVTSFASLDQPGIKVAAVNATTTMRGAVAHLRNAEVTGYQTYDEIFGLLKSGEIDAFALSRDQLNKMAQKIPGTKVLDETFKKTVTAVAVPLGHSLALTFVTKFMNEATINGTLRKAYDNNGLKDSPIRTE”: the protein production result is “failed”.

On to “MSQAHAAQRPNGAKEPANPTQGGRKAIIAAASANLAIAVTKAIAWALTGASSMLAEAIHSVADTANQVVLMMGGKESHKEADEDHPFGYETARYLSGFIVAIVIFTLGGLFALYEAYHKIGATLGGHPDELLDSQWWWVPLAVVMISLCAEGASLRTALKESSQDREGMTILQYIRKAKAPELPVVMLEDSAAVLGLIFAFLGVGLTLLTHNPIFDGIGSACIGILLVVVAGVLSREMKSLLEGESAAPESRKAVYDALIHSDGVDSVIYMKTVHLGPETILLAAKIAVDPTDSAFEVARIIDNAEASVRAAEPLVGPLFLEPDIRYGDKRIKDGEERPEDQS”, for which the protein production entry is “failed”.

For “MSQALPVRDQGRDQGIFAGTLPPAPPKFKWTRLDTYTWAIIAVFALVTRFTGLSSATASGTPVFDEKHYVPQAWDMVRSWINPITGGIESNPGYGLVVHPPLAKQLEALGEWVFGYTPLGWRIMVAIFGTLTIFAIMAIARRLSGSTMVTFIAGILALADGVLLVSSRFGMLDIFLVFFITAAAWALIRDHQQMHQRLNDLLLTNGQITKDFGPRFGFRWWRFTTGVFLGLALSVKWSGLYYIAFFGLTSVFLDLWLRKRYGVRRYVTGTLKNDVIPALGSLVIIPALLYIWSWRAWFASETSVYRHAKTDGTITEDSILQLFPESIAGWIHYHISVLEFHGSLTTSSGHSHPWDSKPWAWLVSGRPILYFSSTDISCDVGGTCRRMIYLFGTPAIWWLTVPVILWALWSFFARRSRGYVVPLVAFAAGFLPWLAAYDRQMYFFYATALVPFTIIMLALACGELWGRGKMTPTGLTRGSMAVVTYISLVVMMFLAFSPLFYGFVIPDYVYESLMWFPSWR”, the protein production entry is reported as “not failed”.

For the sequence “MSQELKNKVQFLAKELNQLVNILYEESKKQTPLTLWLLCKNTFVYLYRTVKTVRGVAGVLLVLVPGSLMAYTTDAFRAIGELPWTSITVLLGGMSFFLFAYLRHLVLDEMSRPGSDLFHIQVYEKRKPDEYMSLIALAKERDYVESIAADIEQVTSTPSLPNLLELLKEKEQDIEEKDRVIEDLLEIVEDNEEHTLMFKEKYEILLDFVFQLKSKLNLLVHDQFSLDSIDFGSDYSLYKVGEEGLEFVDSYGVNKAEMEDFIPFTEKGNPYILAIERDYKDPLKVGDLISWKRTLQDGSQWVLSLHLNENSREKLNDVTESGKLNVTITQELLWICCELLNKFSPNPTKKGEE”, the protein production entry is “failed”.

With “MSQFPLISVMTFLPLLGVVLLFFVPKQSHSVHRMLALLVSLVTFVVSIPLVTGFQSNADFQFVEKMPWIAAGPFQMNYHVAIDGISLWLVLLTTFIMPIAILSTWTAVEEKVKEYMICLLLLEVGMLGAFVSLDLFLFYIFWEVMLIPMYFIIGIWGGKNKIYAAVKFFIYTMVGSMLMLVALVTLYFKAGAGDFNVLRFYEVTLDPATQVWMFLAFALAFAIKVPMFPLHTWLPDAHTEAPTAGSVILAAVLLKMGTYGFVRFAMPLFPDATDKFTPLIATLSVIGIIYAALVAMVQEDVKKLVAYSSVAHLGYVMLGVFALNLQGLSGGMLQMLNHGVSTGALFLIVGFIYERRHTRLITDFGGLAKQMPVFATIFMIVTLSSIGLPGTNGFVGEFLVLLGAFESELRWYAVIGTSGVILAAVYMLWMFQRVMFGELTNPKNQTLCDLNAREVGIMLPLLVLIFVMGVYPTPFIEKMSPSLEKLIVHVKTKQQGAVAQVETVPAAPQVMPAAAVVPAEHK”, the protein production entry is reported as “failed”.

On to “MSQFPNRAALWLNKLAPDAPLMSGLCPSVQVTDGQINGESVRFIAVVPDANNHYPRAAGGEVGLLEGWTLAKVVNETIAADADRPVKRPIVAVIDVPSQAYGRREEAFGIHQALAGAAGAYAKARLAGHPVIGLIVGKAMSGAFLAHGYQANRLIAFNDSGVLVHAMGKASAARITLRTVEALEKLAATIPPMAYDVSNYATLGLLSALLDISNPDAPDEGDLSLVSRTLRDAIADARTDTSLKCRLGAENRRSSQLVRDRMRASW”, for which the protein production entry was “failed”.

On to “MSQFQEVRPVAQALYPTHPSTKDALEEARLLLPGGTHHDFMRALMGYHNTLVKVMEEQC”, for which the protein production entry is “not failed”.

Take “MSQIFVVFSSDPEILKEIVREIKRQGVRVVLLYSDQDEKRRRERLEEFEKQGVDVRTVEDKEDFRENIREIWERYPQLDVVVIVTTDDKEWIKDFIEEAKERGVEVFVVYNNKDDDRRKEAQQEFRSDGVDVRTVSDKEELIEQVRRFVRKVGSLEHHHHHH”: the protein production entry is listed as “not failed”.

For the sequence “MSQILIGVGWVLFTVLLYQLSKKIYKLFPTPFTIPMLVATGLMAFLFIVLDIPYQHYMESGGGWIAKLLGPGVVAFAIPLYKQRHVLQKYVVPIAGGVLVGTTVAIASDFAIASLMGTDKSLILSSLPKSVTMPVAMSVSEQVGGVPSLTAAFVVIAGITGTITGPLLLKWSRVTNSVGKGIGFGCASHIMGVMRAMKNNEHEGVIGSVTMTLTAILTCLLGPLFAMMFM”, the protein production result is “failed”.

As for “MSQKKTSSRSSSVDDPATQYAKEVHSGERVAGPDIRNACARHLRDLEEGPKRGLTWDLDAANKAIRFYRTVLKLNGGEFEGLPFELLPWQKFIVGSIFGWKSSDGYRRFRVVYVESGKGSGKSPLAAGVGLTGLIADNEARAEIYAAATKKDQAMILFRDAVAMVQQSPELTKRLVCSGTGQNIWNLAYLKSGSFFRPISSDDGQSGPRPHMALIDEVHEHKTNMVVEMMRAGTKSRKQALIFMITNSGSNKRGPCWEYHEYGSRVASGALTDDGFFAYICSLDEGDDPIQDESCWFKSNPSLQDADLPGMKYLREQVTEARGMPSKEAMVRRLNFCEWTGAESPWISWDVWSQAEERVPMSLLRNRPSVGGLDLSSTTDLTSFVLLFYPTYEDPHWRLLPYFWIPDHELDKREARDKVPYAAWIKSRDLETTPGRAISKLHVLRRLQTICDFFQVDKIAFDRWRIEDMRQLMSEYDITLPELVEFGQGFKDMGPAVDEFERRLLGMIEQQPEEEGGAAEFFDDALPAEAVESLRHDGNPVMTWCAGNAVIVSDPANNRKADKAKATGRIDGIIAAIMATGISGAVSSGSSGSSIYDEGVGV”, the protein production result was “failed”.

As for “MSQLVTHAFDDATALSFDGRQFHGQVKAEYYNMVGPFGGITAATMLKAAMSHPERLGQPLALTVNFAAPAKVAPFVIEAVPVRTNRSTQHFTLTMMQDGEVVTTATAVFGIRRESWSHTEAVMPDVPPPADVPRFVAPAPLPWMQWYHVRLIRGSAFDEVQDATTYQWMRDDPPRPLDHAALAALCDTFVPRVYVKLKRPVPIGTVTFTVYFLADPETIFRQGTNELLGVARATGFSHGYFDQIGEVWSQDGDLLATTTQLVYMKAPVSGSS”, the protein production result is recorded as “not failed”.

As for “MSQNWNADYATLAKRGFMLGAGLFLLGIAGEVAGSAVLGTLPAWGDTLLVDMEMLGILVGLLSPLVFGVVMPLTE”, the protein production result is listed as “failed”.

As for “MSQQVIIFDTTLRDGEQALQASLSVKEKLQIALALERMGVDVMEVGFPVSSPGDFESVQTIARQVKNSRVCALARCVEKDIDVAAESLKVAEAFRIHTFIATSPMHIATKLRSTLDEVIERAIYMVKRARNYTDDVEFSCEDAGRTPIADLARVVEAAINAGATTINIPDTVGYTMPFEFAGIISGLYERVPNIDKAIISVHTHDDLGLAVGNSLAAVHAGARQVEGAMNGIGERAGNCSLEEVIMAIKVRKDILNVHTAINHQEIWRTSQLVSQICNMPIPANKAIVGSGAFAHSSGIHQDGVLKNRENYEIMTPESIGLNQIQLNLTSRSGRAAVKHRMDEMGYKESEYNLDNLYDAFLKLADKKGQVFDYDLEALAFIGKQQEEPEHFRLDYFSVQSGSNDIATAAVKLACGEEVKAEAANGNGPVDAVYQAINRITDYNVELVKYSLTAKGHGKDALGQVDIVANYNGRRFHGVGLATDIVESSAKAMVHVLNNIWRATEVEKELQRKAQHNENNKETV”, the protein production entry is “not failed”.

Consider “MSQSNSNHSPQEQWQQAVLTYARDINRYVETGNRDGWKGLKEPHLPDTEHLLPDWQAALEASNQEPYDAARRQAFRQEWPPAHFPLSPRLESQGRMIPTLALLPDGSLLARIGAPYEAGEVVHIDDARIQPLEQVEGFGMCPQRRYFAWARADGIQLTDGWNGPEVASFAWPDPHANLPAGVALEDTGRPRPSSLIPFPDGRRVLLVSSDGIFVLQAEGATRLLPSLEDLQQELADGVAPEDLGIGLSMEHGAVSPDGQWIAVGEQSSSHLVFDARLQRVAQIGPASEYPHFAHFNQRGDRLLLNACHFYGGASVGVAVADLPGLSTDFYSDDARTPVLQEGARVYAAASRGDEFIIGDAYGYLRAFSENGEERWQHYIGSTLTAMDISPDGKTLVAATYAGIIVKLDLDAGRPDWQIGTGEHLEVQRWLFWKDFAKPLLW”, for which the protein production result was “failed”.

As for “MSQSPILFFQHGMGESNQNMQILAGRVASENAYVVVPNLNLLTTFLNLDPLIEVVERSASETLNDFPQSTFSVVGFSMGGILWVEVLSRNPSWLERLDALVLIGSPIQGASLARTVDLFGWGIGIAQELGRNRQYLAEKITQKIPTLVIAGSVNGGGDGVIPIESTRLNGTHFFTRNNVKHQDLPIDLIIGEKVKSFLLHPYLIPS”, the protein production entry is on record as “failed”.
